This sample holds only a part of the variants without activity. A value given as a limit tells only on which side of the number the result lay.

First the molecules themselves.
B1: TPR 5TU (parent)
chain: GGAUCUUCUCGAUCUAACAAAAAAGACAAAUCUGCCACAAAGCUUGAGAGCAUCUUCGGAUGCAGAGGCGGCAGCCUUCGGUGGCGCGAUAGCGCCAACGUUCUCAACUAUGACACGCAAAACGCGUGCUCCGUUGAAUGGAGUUUAUCAUG

The variants in the data set derive from B1. The data set is described as follows: polymerase ribozyme fitness, log enrichment relative to wild type (log ratio); higher = more active; in vitro selection for triplet polymerase activity. Put shortly: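 In triplicate, a single round of in vitro selection was run on each mutant library, PCR-built and transcribed, covering one subunit of a heterodimeric triplet polymerase ribozyme. Frozen incubation at −7 °C followed annealing with a biotinylated primer, partner subunit and triplets, and extended constructs were then gel-excised, streptavidin-captured and taken through RT-PCR. Fitness is the logarithm of genotype enrichment over wild-type enrichment, from inverse-variance-weighted replicate averages of Illumina-sequenced inputs and outputs. […] only genotypes with ≥10 input reads and ≥1 read per output were kept.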
In the case of GGAUCUUCUCGAUCUAACGAAAAAGACAAAUCUGCCACAAAGCUUGAGAGCAUCUUCGGAUGCAGAGGCGGCAGCCUUCGGUGGCGCGAUAGCGCCAACGUUCUCAACUAUGACACGCAAAACGCGUGCUCCGUUGAAUGUAGUUUAUCAUG [A19G G141U], the “polymerase ribozyme fitness (log ratio)” value worked out at 1.06.
For GGAUCUUCUCGAUCUAACGAAAAAGACAAAUCUGCCACAAAGCUUGAAAGCAUCUUCGGAUUCAGAGGCGGCGGCCUUCGGUGGCGCGAUAGCGCAAACGUUCUCAACUAUGACACGCGAAACGCGUGCUCCGUUGAAUGGAGUUUAUCAUG [A19G G48A G62U A73G C96A A119G], the “polymerase ribozyme fitness (log ratio)” value was ≤ -4.2.
GGAUCUUCUCGAUCUAACGAAAAAGAUAAAUCUGCCACAAAGCUUGAGAGCAUCUUCGUAUGCAGAGGCGGCAGCCUUCGGUGGCGCGAUAGCCCCAACGUUCUCAACUAUGACACGCAAAACGCGUGCUCCGUUGAAUGGAGUUUAUCAUG [A19G C27U G59U G94C]: the “polymerase ribozyme fitness (log ratio)” value was -2.46.
For GGAUCUUCUCGAUCUAACGAAAAAGACAAAUCUGCCACAAAGCUUGAGAGCAUCUUCGGAUGCAGAGGCGGCAGCCUUCGGUGGCGCGAUAGUGCCAACGUUCUCAACUAUGACACGCAAAACGCGUGCUCCGUUGAAUGGAGUUUAUCAUG [A19G C93U] the value was -1.99; for GGAUCUUCUCGAUCUAACGAAAAAGACAAAUCUGCCACAAAGCUUGAGAGCAUCUUCGGAUGCAGAGGCGGCAGCCUUCGGUGGCGCGAUAGAGCCAACGUUCUCAACUAUGUCACGCAAAACGCGUGCUCCGUUGAAUGCAGUUUAUCAUG [A19G C93A A113U G141C], ≤ -4.2.
For GGAUCUUCUCGAUCUAACGAAAAAGACAAAUCUGCCACAAAGCUUGAGAGCAUCUUCGGAUGCAGAGGCGGCAGCCUUCGGUGGCGCGAUCGCGCCAACGUUCUCAACUAUGACACGCAAAACGCGUGCUCCGUUGAAUGGAGUUUAUCAUG [A19G A91C] the value was -4.15.
Take GGAUCUUCUCGAUCUAACGAAAAAGACAAAUCUGCCACAAAGCUUGAGAGCAUCUUUGGAUGCAGAGGCGGCAGCCUUCGGUGGCGCGAUAACGCCAACGUUCGCAACUAUGACAUGCAAAACGCGUGCUCCGUUGAAUGGAGUUUAUCAUG [A19G C57U G92A U104G C116U]: the “polymerase ribozyme fitness (log ratio)” value is -4.18.
Regarding GGAUCUUCUCGAUCUAACGAAAAAGAUAAAUCUGACACAAAGCUUGAGAGCAUCUUCGGAUGCAGAGGCGGCGGCCAUCCGUGGCGCGAUAGCGCCAACGUUCUCAACUAUGACACGCAAAACGCGUGCUCCGUUGAAUGGAGUUUAUCAUG [A19G C27U C35A A73G U77A G80C], the “polymerase ribozyme fitness (log ratio)” value was ≤ -4.2.
Next, GGAUCUUCUCGAUCUAACGAAAAAGACAAAUCUGCCACAAAGCUUGAGAGCUUCUUCGGAUGCAGAGGCGGCAGCCUUCGGUGGCGCGAUAGCGCUAACGUUCUCAACUAUGACACGCAAAGCGCGUGCUCCGUUGAAUGGAGUUUAUCAUG [A19G A52U C96U A122G]: -2.62; GGAUCUUCUCGAUCUAACGAAAAAGACAAAUCUGCCACAAAGCUUGAGUGCAUCAUCGGAUGCAGAGGCGGCAGCCUUCGGUGGCGCGAUAGCGCUAACGUUCUCAACUAUGACACGCAAAACGCGUGCUCCGUUGAAUGGAGUUUAUCAUG [A19G A49U U55A C96U]: -1.84; GGAUCUUCUCGAUCUAACGAAAAAGACAAAUCUGUCACAAAGCUUGAGAGUAUCUUCGGAUGCAGAGGCGGCAGCCUUCGGUGGCGCGAUAGCGCUAACGUUCUCAACUAUGACACGCAAAACGCGUGCUCCGUUGAAUGGAGUUUAUCAUG [A19G C35U C51U C96U]: -1.35.
Next, GGAUCUUCUCGAUCUAACGAAAAAGACAAAUCUGCCAAAAAGCUUGAGAGCAUCUUCGGAUGCAGAGGCGGCAGCCUUCGGUGGCGCGAUAGCGCCAACGUCCUCAAUUAUGACACGCAAAACGCGUGCUCCGUUGAAUGGAGUUUAUCAUG [A19G C38A U102C C108U]: ≤ -4.2.
Next, GGAUCUUCUCGAUCUAACGAAAAAGACAAAUCUGCCACAAAGCUUGAGAGCAUCUUCGGAUGCAGAGGCGGCAGCCUUCGCUGGCGCGAUAUCGCCAACGUUCUCAACUAUGACACGCAAAACGCGUGCUCCGGUGAAUGGAGUUUAUCAUG [A19G G81C G92U U134G]: -2.69.
As for GGAUCUUCUCGAUCUAACGAAAAAGACAUAUCUGCCACAAAGCUUGAGGGCAUCUUCGGAUGCAGAGGCGGCAGCCUUCGGUGGCGCGAUAGCGCCAACGUUCUCAACUAUGACACGUAAAACGCGUGCUCCGUUGAAUGGAGUUUAUCAUG [A19G A29U A49G C118U], the “polymerase ribozyme fitness (log ratio)” value is ≤ -4.2.
For GGAUCUUCUCGAUCUAACGAAAAAGACAAAUCUGCCACAAAGCUUGAGAGCAUCUUCGGAUGCAGAGGCGGCAGCCUUCGGUGGAUCGAUAGUGCCAACGUUCUCAACUAUGACACGCAAAACGCGUGCUCCGUUGAAUGGAGUUUAACAUG [A19G C85A G86U C93U U148A] the value was ≤ -4.2.
Next, GGAUCUUCUCGAUCUAACGAAAAAGACAAAUCUGCCACAAAGCUUGAGAGCAUCUUCGGAUGCAGAGGCGGCAGCCUUGGGUGGCGCGAUAGCGCCAACGUUCUCAACUAUGACACGCAAAACGCGUGCUCCGUUGAAUGGAGUUUAUCAUG [A19G C79G]: ≤ -4.2.
For GGAUCUUCUCGAUCUAACGAAAAAGACAAAUCUGCCACAAAGCUUGAGAGCAUCUUCGGAUGCAGAGGCGGCAGCCUUCGGUGACGCGAUAGCGCCAACGUUCUCAACUAUGACACGCAAAACGCGUGCUCCGUUGAAUGGAGUUCAUCAUG [A19G G84A U146C] the value was -0.526.
For GGAUCUUCUCGAUCUAACGAAAAAGACAAAUCUGCCACACAGCUUGAUAGCAUCUUCGGAAGCAGAGGCGGCACCCUUCGGUGGCGAGAUAGCGCCAACGUUCUCAACUAUGACACGCAAAACGCUUGCUCCGUUGAAUGGAGUUUAUCAUG [A19G A40C G48U U61A G74C C87A G126U], the “polymerase ribozyme fitness (log ratio)” value was ≤ -4.2.
Next, GGAUCUUCUCGAUCUAACGAAAAAGAUAAAUCUGCCACAAAGCUUGAGAACAUCUUCGGAUGCAGAGGCGGCAGCCUUCGGUGGCGCGAUAGCGCCAACGUUCUCAACUAUGACACGCAAAACGCGUGCUCCGUUGAAUGGAGUUUAUCAUG [A19G C27U G50A]: -4.19.

The values above are taken from the RNAGym collection of RNA variant scans (doi:10.1073/pnas.2313332121).
